# According to the supplement of paper PMC12042874:
# ± gives the uncertainty stated by the source.
# Test: amyloid nucleation score (Sup35N fusion, yeast selection) (log enrichment); library NNK2; higher = more nucleation; inactive = no reads after selection
# Outline: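 Peptides of 20 random codons, each fused to Sup35N, were expressed in psi-negative yeast. Cells were induced with 100 μM copper sulfate for 24 hours and grown 7 days at 30°C on medium lacking adenine and uracil, and plasmid inserts before and after selection were Illumina-sequenced. Nucleation scores are DiMSum log enrichments of output over input reads, centred on the mode score of non-aggregating sequences, and sequences under 100 input reads were excluded.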
row,Substance,amyloid nucleation score
1,FPWQSSDYFWNHARRS,-0.043 ± 0.6
2,FQNGQDGYGESLV,-0.898 ± 1.1
3,FQVSCVHQVPRAAGVADGAV,0.375 ± 0.21
4,FRAPFTDAGPWSSSGNFLRL,-0.151 ± 0.37
5,FRDIVWF,-0.469 ± 0.55
6,FRFSNR,0.389 ± 0.56
7,FRFWLIDAHLLWDFSYLDTR,3.28 ± 0.13
8,FRGIPCLCHVIM,5.81 ± 0.081
9,FRGSAFS,7.173 ± 0.051
10,FRHYSYRRWQSLHKIVGICH,inactive
11,FRIIYKWCLMPLMPGCGGM,inactive
12,FRKSFHIYIVELYMDDHPLM,inactive
13,FRLAVFSEFQCFR,1.9 ± 0.12
14,FRLNMAYDEPVCLMGSVHNV,-1.38 ± 0.54
15,FRLTIDNFDVNGLLSEMAYG,-0.293 ± 0.38
16,FRMSVKR,0.309 ± 0.33
17,FRMVSKPMLYNIMRFTSMLV,0.057 ± 1.1
18,FRNAGIKRCPFVTRDQSTHF,inactive
19,FRSNYVKAFRYLYVGLVVNL,-0.505 ± 1.1
20,FRYIKPTCSFICLVRFVGDF,-0.833 ± 1
21,FRYRKSLDCNAMVPERQTGT,1.11 ± 0.53
22,FSFEMDISLWALWGYMRSDL,inactive
23,FSFYLTQSKSALIIDVAQRI,-0.231 ± 0.49
24,FSGFVCWQADIFDDANIRLV,-0.707 ± 0.78
25,FSHFAPWLSSDLCMWSCYLG,5.269 ± 0.041

row,Substance,amyloid nucleation score
1,FSIDVSSYRMWLPVSDLYFI,-0.545 ± 0.76
2,FSLFCPWRKWLLDEVFM,0.5 ± 0.27
3,FSLGQKLLFCFCEVCWLNVA,2.97 ± 0.1
4,FSMRSKQGRTFTRLQDGSGL,4 ± 0.046
5,FSNIVNCSDRCATCVYFEFV,4.808 ± 0.047
6,FSNSHIVMVENLTDIVSVTT,inactive
7,FSRVESEIHSHWPW,5.639 ± 0.041
8,FSSNTKSNKRIDV,0.147 ± 0.8
9,FSSRNFNLCRKTYWWCDSYQ,-0.066 ± 1
10,FSSWAFLMSRLCYHDSESHL,0.417 ± 0.16
11,FSTHDIGSRKWARQYLYVVH,0.334 ± 0.31
12,FSVRLSELSMTNLSTQYEIS,1.82 ± 0.15
13,FSWDPGMIWGKI,7.203 ± 0.053
14,FTFFIRYLERDWPRLL,-0.549 ± 0.74
15,FTKSKWLWSRAAFLRIDRW,0.799 ± 0.74
16,FTVVIINISYTLSVLRERQM,1.5 ± 0.14
17,FTWVYMVGFKWWVSVCLLDS,-0.551 ± 0.28
18,FTYLIEARG,1.02 ± 0.41
19,FTYRPISRNM,4.99 ± 0.076
20,FVDRTCLVRSMLRVLPITGG,0.065 ± 0.61
21,FVFLVYYFSEFIH,inactive
22,FVFYSEEGLGHDLSNFTGGI,inactive
23,FVLMMDYEIIFLN,4.52 ± 0.071
24,FVLSMVLSIILLSLSHHLFG,2.33 ± 0.2
25,FVNQPKVRYLVSCYFMANLP,0.016 ± 0.54

row,Substance,amyloid nucleation score
1,FVRASGHTTCYSCQLSTPGP,1.34 ± 0.15
2,FVRGDSGFTLNAAR,-0.288 ± 0.3
3,FVRSIDNSAYLLWVSLYPCM,-0.364 ± 0.79
4,FVRSWSTCCDA,-0.176 ± 0.31
5,FVRVCLSVIRYFTVTPGFKD,inactive
6,FVSGDHGTVWYIT,-0.036 ± 0.48
7,FVSGRKNETYSKVIHVSDVD,-0.198 ± 0.62
8,FVSSII,-1.29 ± 0.39
9,FVWSKSR,2.88 ± 0.13
10,FVYVIFQSNMGPYWRNRRLL,0.636 ± 0.81
11,FVYWFKYT,-1.2 ± 1.1
12,FWLNMYSVETVYGVVFAWEK,-0.694 ± 0.31
13,FWVFTNIESMGLAYCDNQDL,3.09 ± 0.064
14,FWVLDSSADYRAS,5.62 ± 0.075
15,FWYCTHTTSYDGTLNSEWVT,0.307 ± 0.26
16,FWYSCR,-0.889 ± 0.41
17,FYCRVFTLSGFVRIWGDC,-0.562 ± 1.1
18,FYGVNVRIRCKH,0.486 ± 0.66
19,FYHCFDVLSSQMYYLKLLST,inactive
20,FYKDKETCLECWMIYENCRK,-0.29 ± 0.32
21,FYKNAP,-1.06 ± 1.1
22,FYLRGHACDSSWSNLVVGLW,4.8 ± 0.083
23,FYNRFRGFIFV,inactive
24,FYPAEFYGKGLVDRTLFFIC,0.12 ± 0.18
25,FYRGT,-0.974 ± 0.55

row,Substance,amyloid nucleation score
1,FYSFGGNGDYSPKSGHWS,inactive
2,FYSLILMMEDGSEYVKVEFR,-1.38 ± 0.75
3,FYSSPILM,-0.927 ± 0.41
4,FYVRGGCI,-2.22 ± 0.76
5,FYYLWWDSFRIVISMR,-1.86 ± 0.62
6,GACGVSEVMHRVVFRGRLKR,0.4 ± 0.39
7,GADAGDCPRNHSCAMHAEGF,1.13 ± 0.46
8,GAEFTFGLFTYEFGIGQG,0.285 ± 0.57
9,GAGLRCLFGNSGYGERCVTM,0.82 ± 0.44
10,GAGPGSLAKRHYWDSSSQYE,-0.024 ± 0.31
11,GAGWFNDFVHLPWHLEVSNY,-1.17 ± 1.1
12,GAIDLMDALRCPAKTDTR,0.811 ± 0.67
13,GASFMSRNIRTWMTMWCDLK,0.012 ± 0.23
14,GATGGLSVCELVRCSELNRG,0.985 ± 0.37
15,GAVGARLAINGSSRWMCSWY,2.39 ± 0.1
16,GAWTAMSGVLMVMLWLWSVC,1.83 ± 0.23
17,GCGSPQSTFPRERCQVLVTA,0.829 ± 0.49
18,GCHSWSNLGEWCCYIYKMVI,-1.14 ± 0.78
19,GCMTMTWMTNYLSFHNDTFT,4.26 ± 0.065
20,GCNIRTNVGRLCMSYPDSNR,0.636 ± 0.18
21,GCSLVKAYCSVL,0.325 ± 0.6
22,GCSNVCERGS,inactive
23,GCSVKFIFNHKSGYYIYLLF,-0.822 ± 0.54
24,GCYLVNDASPVSHLVFLPM,inactive
25,GDFVGMLYNRCGHHMVIILT,-0.731 ± 0.35

row,Substance,amyloid nucleation score
1,GDHVVFNWRAHSSSRIVSSY,1.17 ± 0.68
2,GDSFLWTHS,-0.994 ± 0.62
3,GDYHSYGVVRSYFCATPSSG,0.64 ± 0.44
4,GECRCYHQTCGFHCNLGFGY,4.7 ± 0.08
5,GEGHWNYLLASFCNHGMCYF,7.471 ± 0.029
6,GEINENGKLCGGRAQGTGTY,-0.392 ± 0.63
7,GELWCDLRILFVGVSLIVL,inactive
8,GENVVEACLWGQSQASWFIR,-0.009 ± 0.55
9,GEQMWGYCRLYRGTGRGALG,1.85 ± 0.16
10,GFDLAWSWIPFSRWFALLVN,-0.486 ± 0.56
11,GFDSDMVPHRSSRAVLC,1.33 ± 0.46
12,GFGCPA,-0.165 ± 1
13,GFGVPDWMFDSFSAAQLSQI,-0.343 ± 0.35
14,GFLFMVMRSQLRCVYINKY,1.61 ± 0.15
15,GFLNLCRSTSRELMCEMYSA,-0.651 ± 1.1
16,GFMFVFWKFKHGLMGPCSRD,0.684 ± 0.23
17,GFRFSVIGI,-0.101 ± 0.63
18,GFSRRGELHVSVYHIRDNVR,-1.11 ± 1.1
19,GFTLEAKDWSTG,0.778 ± 0.43
20,GFVDELLNKRRLMCLIKTWK,0.179 ± 0.44
21,GGDDVEDMYALGPNFFEGG,0.627 ± 0.66
22,GGDLNHHFAWTTNKMHDERR,4.537 ± 0.038
23,GGERMRSRKYEYGGWNMCYY,inactive
24,GGGAAPNPTDYKSILLLC,0.17 ± 0.34
25,GGMLPYVVITFETFMPRCMN,-1.7 ± 0.75
